Sequences and labels used below:
B1: apelin polypeptide SEQ ID NO: 211 (peptide)
peptide: Tridecanoyl-[γGlu][AEEA][AEEA]RQRP[dR][NMeL]SHKG[Oic][Phe(4-I)]P[dBip]-OH
SMILES: CCCCCCCCCCCCC(=O)N[C@@H](CCC(=O)NCCOCCOCC(=O)NCCOCCOCC(=O)N[C@@H](CCCNC(=N)N)C(=O)N[C@@H](CCC(N)=O)C(=O)N[C@@H](CCCNC(=N)N)C(=O)N1CCC[C@H]1C(=O)N[C@H](CCCNC(=N)N)C(=O)N(C)[C@@H](CC(C)C)C(=O)N[C@@H](CO)C(=O)N[C@@H](Cc1c[nH]cn1)C(=O)N[C@@H](CCCCN)C(=O)NCC(=O)N1[C@H](C(=O)N[C@@H](Cc2ccc(I)cc2)C(=O)N2CCC[C@H]2C(=O)N[C@H](Cc2ccc(-c3ccccc3)cc2)C(=O)O)C[C@@H]2CCCC[C@@H]21)C(=O)O
B2: apelin polypeptide SEQ ID NO: 208 (peptide)
peptide: Tridecanoyl-[γGlu][AEEA][AEEA][hArg][dQ][hArg]P[dR][NMeL][βAla]HKG[Oic][Phe(4-I)]P[dBip]-OH
SMILES: CCCCCCCCCCCCC(=O)N[C@@H](CCC(=O)NCCOCCOCC(=O)NCCOCCOCC(=O)N[C@@H](CCCCNC(=N)N)C(=O)N[C@H](CCC(N)=O)C(=O)N[C@@H](CCCCNC(=N)N)C(=O)N1CCC[C@H]1C(=O)N[C@H](CCCNC(=N)N)C(=O)N(C)[C@@H](CC(C)C)C(=O)NCCC(=O)N[C@@H](Cc1c[nH]cn1)C(=O)N[C@@H](CCCCN)C(=O)NCC(=O)N1[C@H](C(=O)N[C@@H](Cc2ccc(I)cc2)C(=O)N2CCC[C@H]2C(=O)N[C@H](Cc2ccc(-c3ccccc3)cc2)C(=O)O)C[C@@H]2CCCC[C@@H]21)C(=O)O
B3: apelin polypeptide SEQ ID NO: 213 (peptide)
peptide: Tridecanoyl-[γGlu][AEEA][AEEA][dR]QRP[hArg][NMeL]SHKG[Oic][Phe(4-I)]P[dBip]-OH
SMILES: CCCCCCCCCCCCC(=O)N[C@@H](CCC(=O)NCCOCCOCC(=O)NCCOCCOCC(=O)N[C@H](CCCNC(=N)N)C(=O)N[C@@H](CCC(N)=O)C(=O)N[C@@H](CCCNC(=N)N)C(=O)N1CCC[C@H]1C(=O)N[C@@H](CCCCNC(=N)N)C(=O)N(C)[C@@H](CC(C)C)C(=O)N[C@@H](CO)C(=O)N[C@@H](Cc1c[nH]cn1)C(=O)N[C@@H](CCCCN)C(=O)NCC(=O)N1[C@H](C(=O)N[C@@H](Cc2ccc(I)cc2)C(=O)N2CCC[C@H]2C(=O)N[C@H](Cc2ccc(-c3ccccc3)cc2)C(=O)O)C[C@@H]2CCCC[C@@H]21)C(=O)O
B4: apelin polypeptide SEQ ID NO: 201 (peptide)
peptide: Tridecanoyl-[γGlu][AEEA][AEEA][hArg][dQ][hArg]P[dR][NMeL]S[Tle]KG[Oic][Phe(4-I)]P[dBip]-OH
SMILES: CCCCCCCCCCCCC(=O)N[C@@H](CCC(=O)NCCOCCOCC(=O)NCCOCCOCC(=O)N[C@@H](CCCCNC(=N)N)C(=O)N[C@H](CCC(N)=O)C(=O)N[C@@H](CCCCNC(=N)N)C(=O)N1CCC[C@H]1C(=O)N[C@H](CCCNC(=N)N)C(=O)N(C)[C@@H](CC(C)C)C(=O)N[C@@H](CO)C(=O)N[C@H](C(=O)N[C@@H](CCCCN)C(=O)NCC(=O)N1[C@H](C(=O)N[C@@H](Cc2ccc(I)cc2)C(=O)N2CCC[C@H]2C(=O)N[C@H](Cc2ccc(-c3ccccc3)cc2)C(=O)O)C[C@@H]2CCCC[C@@H]21)C(C)(C)C)C(=O)O
B5: apelin polypeptide SEQ ID NO: 216 (peptide)
peptide: Tridecanoyl-[γGlu][AEEA][AEEA]RQRP[dR][Cha]SHKG[Oic][Phe(4-I)]P[dBip]-OH
SMILES: CCCCCCCCCCCCC(=O)N[C@@H](CCC(=O)NCCOCCOCC(=O)NCCOCCOCC(=O)N[C@@H](CCCNC(=N)N)C(=O)N[C@@H](CCC(N)=O)C(=O)N[C@@H](CCCNC(=N)N)C(=O)N1CCC[C@H]1C(=O)N[C@H](CCCNC(=N)N)C(=O)N[C@@H](CC1CCCCC1)C(=O)N[C@@H](CO)C(=O)N[C@@H](Cc1c[nH]cn1)C(=O)N[C@@H](CCCCN)C(=O)NCC(=O)N1[C@H](C(=O)N[C@@H](Cc2ccc(I)cc2)C(=O)N2CCC[C@H]2C(=O)N[C@H](Cc2ccc(-c3ccccc3)cc2)C(=O)O)C[C@@H]2CCCC[C@@H]21)C(=O)O
B6: apelin polypeptide SEQ ID NO: 214 (peptide)
peptide: Tridecanoyl-[γGlu][AEEA][AEEA]RQRP[hArg][Cha]SHKG[Oic][Phe(4-I)]P[dBip]-OH
SMILES: CCCCCCCCCCCCC(=O)N[C@@H](CCC(=O)NCCOCCOCC(=O)NCCOCCOCC(=O)N[C@@H](CCCNC(=N)N)C(=O)N[C@@H](CCC(N)=O)C(=O)N[C@@H](CCCNC(=N)N)C(=O)N1CCC[C@H]1C(=O)N[C@@H](CCCCNC(=N)N)C(=O)N[C@@H](CC1CCCCC1)C(=O)N[C@@H](CO)C(=O)N[C@@H](Cc1c[nH]cn1)C(=O)N[C@@H](CCCCN)C(=O)NCC(=O)N1[C@H](C(=O)N[C@@H](Cc2ccc(I)cc2)C(=O)N2CCC[C@H]2C(=O)N[C@H](Cc2ccc(-c3ccccc3)cc2)C(=O)O)C[C@@H]2CCCC[C@@H]21)C(=O)O
B7: apelin polypeptide SEQ ID NO: 17 (peptide)
peptide: Ac-RQRP[hArg][Cha]SHKG[Oic][Nle]P[Phe(4-Cl)]-OH
SMILES: CCCC[C@H](NC(=O)[C@@H]1C[C@@H]2CCCC[C@@H]2N1C(=O)CNC(=O)[C@H](CCCCN)NC(=O)[C@H](Cc1c[nH]cn1)NC(=O)[C@H](CO)NC(=O)[C@H](CC1CCCCC1)NC(=O)[C@H](CCCCNC(=N)N)NC(=O)[C@@H]1CCCN1C(=O)[C@H](CCCNC(=N)N)NC(=O)[C@H](CCC(N)=O)NC(=O)[C@H](CCCNC(=N)N)NC(C)=O)C(=O)N1CCC[C@H]1C(=O)N[C@@H](Cc1ccc(Cl)cc1)C(=O)O
B8: apelin polypeptide SEQ ID NO: 215 (peptide)
peptide: Tridecanoyl-[γGlu][AEEA][AEEA][dR]QRP[dR][Cha]SHKG[Oic][Phe(4-I)]P[dBip]-OH
SMILES: CCCCCCCCCCCCC(=O)N[C@@H](CCC(=O)NCCOCCOCC(=O)NCCOCCOCC(=O)N[C@H](CCCNC(=N)N)C(=O)N[C@@H](CCC(N)=O)C(=O)N[C@@H](CCCNC(=N)N)C(=O)N1CCC[C@H]1C(=O)N[C@H](CCCNC(=N)N)C(=O)N[C@@H](CC1CCCCC1)C(=O)N[C@@H](CO)C(=O)N[C@@H](Cc1c[nH]cn1)C(=O)N[C@@H](CCCCN)C(=O)NCC(=O)N1[C@H](C(=O)N[C@@H](Cc2ccc(I)cc2)C(=O)N2CCC[C@H]2C(=O)N[C@H](Cc2ccc(-c3ccccc3)cc2)C(=O)O)C[C@@H]2CCCC[C@@H]21)C(=O)O

Starred links: 1 amine or outer side, 2 acyl side, 3 side chain; linkers in the order of their positions; H or OH if unused. Non-standard residues stand in square brackets, D forms with d. *: point of attachment. dBip = N[C@H](Cc1ccc(-c2ccccc2)cc1)C(=O)O; Oic = O=C(O)[C@@H]1C[C@@H]2CCCC[C@@H]2N1; Phe(4-Cl) = N[C@@H](Cc1ccc(Cl)cc1)C(=O)O; Phe(4-I) = N[C@@H](Cc1ccc(I)cc1)C(=O)O; γGlu = O=C(O)[C@H](CCC(=O)[*:2])N[*:1]; Tridecanoyl = CCCCCCCCCCCCC(=O)*; hArg = N=C(N)NCCCC[C@H](N)C(=O)O; Cha = N[C@@H](CC1CCCCC1)C(=O)O; NMeL = CN[C@@H](CC(C)C)C(=O)O; Tle = CC(C)(C)[C@H](N)C(=O)O; Nle = CCCC[C@H](N)C(=O)O; AEEA = NCCOCCOCC(=O)O; βAla = NCCC(=O)O

The first test addresses T1, human APJ receptor (human, UniProt P35414 1-380).
T1 sequence (looked up): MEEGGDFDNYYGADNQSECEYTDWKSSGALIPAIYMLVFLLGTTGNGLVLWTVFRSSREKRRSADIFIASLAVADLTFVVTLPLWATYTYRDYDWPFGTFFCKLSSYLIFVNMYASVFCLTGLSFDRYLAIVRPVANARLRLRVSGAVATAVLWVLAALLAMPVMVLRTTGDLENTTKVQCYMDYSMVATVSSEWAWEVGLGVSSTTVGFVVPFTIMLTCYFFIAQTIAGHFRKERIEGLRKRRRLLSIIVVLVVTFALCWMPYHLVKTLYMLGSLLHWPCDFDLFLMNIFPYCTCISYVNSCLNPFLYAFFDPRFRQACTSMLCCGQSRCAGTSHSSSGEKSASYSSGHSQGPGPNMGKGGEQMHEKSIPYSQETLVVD
Kind of test: cell-based or functional assay.
On to B1, for which the “EC50 Human APJ Receptor” value worked out at 1.9 nM.

Consider B2, for which the “EC50 Human APJ Receptor” value is 28.9 nM.

Regarding B3, the “EC50 Human APJ Receptor” value is 0.647 nM.

For B4, the “EC50 Human APJ Receptor” value came out at 49.4 nM.

For the molecule B5, the “EC50 Human APJ Receptor” value came to 10.8 nM.

Turning to B6, the “EC50 Human APJ Receptor” value came out at 2.92 nM.

In the case of B7, the “EC50 Human APJ Receptor” value is 0.171 nM.

For the molecule B8, the “EC50 Human APJ Receptor” value was 8.42 nM.

The next test addresses T2, rat APJ receptor (rat, UniProt Q9JHG3 1-377).
T2 sequence (looked up): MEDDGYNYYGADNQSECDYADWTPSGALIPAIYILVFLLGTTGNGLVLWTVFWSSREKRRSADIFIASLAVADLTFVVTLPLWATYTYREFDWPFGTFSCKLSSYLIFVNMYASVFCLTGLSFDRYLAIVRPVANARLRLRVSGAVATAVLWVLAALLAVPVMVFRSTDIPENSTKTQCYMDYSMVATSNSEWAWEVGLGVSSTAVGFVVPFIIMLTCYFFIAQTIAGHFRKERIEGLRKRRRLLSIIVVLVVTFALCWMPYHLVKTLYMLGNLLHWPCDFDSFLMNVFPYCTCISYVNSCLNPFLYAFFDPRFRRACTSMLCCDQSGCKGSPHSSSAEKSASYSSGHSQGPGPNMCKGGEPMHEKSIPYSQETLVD
The test is described as follows: cell-based or functional assay.
As for B1, the “EC50 Rat APJ Receptor” value was 0.00629 µM.

As for B2, the “EC50 Rat APJ Receptor” value was 0.104 µM.

In the case of B3, the “EC50 Rat APJ Receptor” value was determined as 0.00117 µM.

For the molecule B4, the “EC50 Rat APJ Receptor” value turned out to be 0.182 µM.

Take B5: the “EC50 Rat APJ Receptor” value was 0.0225 µM.

In the case of B6, the “EC50 Rat APJ Receptor” value was 0.00581 µM.

In the case of B7, the “EC50 Rat APJ Receptor” value was determined as 0.00159 µM.

For B8, the “EC50 Rat APJ Receptor” value worked out at 0.0214 µM.

Source of the values: patent publication US10941182 (Amgen, dated 2021).
